Assay [1] concerns the target gp41 ectodomain subunit of BG505 SOSIP.664 (HIV-1 strain BG505). Kind of assay: crystal structure, interfaces between protomers.
The target of assay [2] is gp120 subunit of BG505 SOSIP.664 (HIV-1 strain BG505). Nature of the assay: crystal structure; includes 216 Å^2 from glycan-protein interactions.
The target is the same in assay [3]. Kind of assay: crystal structure, interfaces between protomers.
For assay [4], the target named is BG505 SOSIP.664 trimer+sCD4 complex (HIV-1 strain BG505; human) (UniProt P01730).
Assay [5] deals with BG505 SOSIP.664 HIV-1 Env ectodomain trimer (HIV-1 strain BG505). Kind of assay: crystal structure, interfaces between protomers.

For “gp41 ectodomain subunit of BG505 SOSIP.664”, in assay [1], the buried surface of the gp41-gp41 trimer interface turned out to be 1920 Å^2. For the same substance, in assay [2], the buried surface within a single protomer stood at 5270 Å^2.

Substance gp120 subunit of BG505 SOSIP.664 showed a buried surface of the gp120-gp120 trimer interface in assay [3] of 861 Å^2. Also, the buried surface of the gp120-gp41 interface between protomers in assay [1] was 360 Å^2.

For the substance 3074 antibody, in assay [4], the t1/2 of CD4-induced exposure of the epitope amounted to 4.2 h.

“BG505 SOSIP.664 HIV-1 Env ectodomain trimer” displayed a buried surface of the trimer interfaces, contributed by each protomer in assay [5] of 3140 Å^2.

These data come from patent publication US20170233441A1.
